Test [1] addresses preF (DS-Cav1) with a C-terminal 8x His-tag and AviTag (respiratory syncytial virus (strain not stated)) (UniProt P03420). In words: SPR.
Test [2] deals with preF-stabilized variant of RSV F (PR-DM), tags removed, deglycosylated (respiratory syncytial virus (strain not stated)) (UniProt P03420). Put plainly: crystal structure.

The text below walks through data of publication PMC6005179.

Where only a bound is given, the exact number is not on record here.

For the substance ADI-19425 Fab, light chain Y31A variant, the fold reduction in affinity against ADI-19425 in test [1] is over 200 fold.

On to ADI-19425 Fab, light chain Y91A variant, for which, in test [1], the fold reduction in affinity against ADI-19425 is over 80 fold.

As to AM22 Fab, in test [2], the stoichiometry N (Fab per preF trimer) was 3.
